Target: VEGF165 (vascular endothelial growth factor) (UniProt P15692-4 27-191)
Assay: impedance spectroscopy on aptamer-grafted interdigitated sensor; 5 and 50 pM VEGF in PBS; 10 kHz impedance 50.32 (water), 28.90 (5 pM), 12.81 kOhm (50 pM); proteins diluted in PBS (5 and 50 pM), about 25 °C, impedance 2.5-100 kHz; aptamer grafted at 50 nM, pH 8, 24 h; water pH 7 as control
Conditions: protein: commercial; chain copies: 2

Sequence of VEGF165 (vascular endothelial growth factor) (P15692 other isoform, or with tags, fused parts or gaps): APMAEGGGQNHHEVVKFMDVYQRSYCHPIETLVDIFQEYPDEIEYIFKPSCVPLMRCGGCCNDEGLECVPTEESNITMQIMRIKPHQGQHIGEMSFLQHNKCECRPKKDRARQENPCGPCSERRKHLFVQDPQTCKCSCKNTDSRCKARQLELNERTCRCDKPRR

B1: VEGF165 DNA aptamer (ssDNA)
DNA: ATACCAGTCTATTCAATTGGGCCCGTCCGTATGGTGGGTGTGCTGGCCAGATAGTATGTGCAATCA
modifications: grafted on NHS-functionalized mercapto monolayer; attachment group on the DNA not stated
  binding result: binds

Source: paper PMC10381268, “VEGF Detection via Impedance Spectroscopy on Surface Functionalized Interdigitated Biosensor”
